Assay: soluble on expression in E. coli; label from the status in PepcDB or PDB records

| Sequence | soluble on expression in E. coli |
| --- | --- |
| MSSANIPATQSALIFEKYGGPLEVRQVSVPQPQENELLVKIEYSGICHSDLHTWEGDFEYASICPLIGGHEGAGTVVTIGSKVKGWNIGDRAGIKLINANCLNCEYCKTGHEPLCDHIQNYGIDRHGTFQEYLTIRDIDAIKVSNDTNLAAAAPVLCGGVTAYKSLKATNVKPGQIVVLTGAGGGLGSFGIQYAKAMGMRVVAVDHISKEDHCRNLGAEWFVDAFDTPDIVAHIRKLTNGGAHGVVSFAAAKKPMEYALEYVRKRGTVVFVGLPKDGTIPLDTLSLICNEITVKGSIVGSRMDVDEAIDFITRGIVHVPIELVKLEDVPSVYQRMKDGKVTSRVVVDFSMR | not soluble |
| MSAISSFVLECAHAGRWVRGLMALQEQHLPAEPSMRVACVALAQAAAPHSWAAALCLLRPSDALRHPQEVCKTVDTIARHAQLPIDVFESSMEALLLSLQQLSQSKSHPASGSSRQLASIGPCEALGLATPSTPIQQQVFLSATQWCGWETAARLLACLPSPLPQACVERVQELRTLRHRILHDVGPFCHWGSRAALSSVIGSAGGPLPASAQGTSLAEQLERMEPSPARRYSARDRRELSWLRDHKRQRLLQRTREEEDMLTRQAAEDVAPSALSVCAALRAVTRLPSAASVTAPHVLCRHVLTLSQSRRLTPDIALLYGRAAGLCTPHSWEATVDTLNRAEVRDARLHRQLTTWVISRGSWRAALERLSQLHRDTSSAVPQRSGNNTGDLHRGGDAAASFDCVQRTAVPASYLHRVVPQVSRPWCRLVSSRHSTASLLRQIAGALAGGVRLDEVQLSEAGKEWAANGRWEAALALYYRFPLPEFQKYATRSLVTARPALPPVPSVSHPPSSCLQIGSDPLPGSPSKDSAMFYARTVLELLVPRDGVRYDSASPPRPAPPLGTYPACLVIDAAADWSEAVAVFRACVRRGTRCNPQLLSTLMRRQDLPPQELRQILKSYPAAVNDGVRRRAKEGFGVE | not soluble |
| MGSDKIHHHHHHMALYPLPALVEQLMTQPIIFIGGKGGVGKTTTAAALASYYASQGKKTLIVSTDPAHSLGDVLKVPLKNQKTVVTPYLDAIELNPDLIVDEHFAQVERTITSYANPDMMPKIREHLRLSKSAPGAQEAAMLESMCQHLVAAADAGYEHIIFDTAPTGHTLRLLVLPEMMGAWTDGLLAQQRRQAKLRSVANHLGSHEQANNNKNDLANPFVERKSDRWEQAVSVLEKRKQLFRQAGLLLHDRRKTAIVLVMTADVLPLAETKRAIEQLEESNLIPAAIVINQLITQTQSDAFWHHRAERQQQLMQDIEKNFTNYPLYPIYLQQTDVRGTDALSALVSPVS | not soluble |
| MGSDKIHHHHHHMSEATLLSYTKKLLASPPQLSSTDLHDALLVILSLLQKCDTNSDESLSIYTKVSSFLTALRVTKLDHKAEYIAEAAKAVLRHSDLVDLPLPKKDELHPEDGPVILDIVGTGGDGQNTFNVSTSAAIVASGIQGLKICKHGGKASTSNSGAGDLIGTLGCDMFKVNSSTVPKLWPDNTFMFLLAPFFHHGMGHVSKIRKFLGIPTVFNVLGPLLHPVSHVNKRILGVYSKELAPEYAKAAALVYPGSETFIVWGHVGLDEVSPIGKTTVWHIDPTSSELKLKTFQLEPSMFGLEEHELSKCASYGPKENARILKEEVLSGKYHLGDNNPIYDYILMNTAVLYCLSQGHQNWKEGIIKAEESIHSGNALRSLEHFIDSVSSL | not soluble |
| MSANVDLNQRPDYDAVLQDIADYVLDYRIDSTEALDTARNCLMDTLGCGLLALRFPECTKHLGPLVEGTLVPHGARVPGTSFRLDPVKAAWDIGCIVRWLDYNDTWLAAEWGHPSDNLGGILAVADHLSQKRLANGEAPLSMRQVLEAMIMAHEIQGVIALENSFNRVGLDHVLLVKVASTAVCAKLMGADREQLLAALSHAFVDGQALRTYRHAPNAGSRKSWAAGDATSRGVRLADIALRGEMGIPGVLSAPQWGFYDVLFSHTSKDLATKPEDKRRFSFPQGYGSYVMENVLFKISFPAEFHAQTAAEAAVRLHPLVKDRLQRISRIVITTHESAIRIISKVGPLANPADRDHCLQYMTAVPLIFGDLVAEHYEDAFHAAHPLIDRLREKMEIVEEPRYSREYLEADKRSIANAVEVFFDDGSSTGQVAVEYPLGHRRRRAEGIPLLQEKFKANLATRFPPQRCQRIFDLCSHQASLEATPVNRFMDLLAI | not soluble |
| MGSDKIHHHHHHMPTLNQPQARFLALPHKFRAFVAGFGSGKTWVGGAGLCRHAWEFPRVNSGYFAPTYGQIRDIFYPTIEEVAHDWGLAAKINESNKEVHLFAGRKYRGTVICRSMEKPGDIVGFKIGKGLIDELDVMKADKAALAWRKIIARLRHTAPGLLNGVDVTTTPEGFKFVYQQFVKQVRERPELAALYGLVQASTYENGKNLPEDYIPSLRASYPPQLIAAYLRGQFTNLTSGSVYANFDRRLHHTDAAEEPHEELHIGMDFNVLNMTATVNVIRAGLPLTVGELTKVRDTPEMARMLKERFKDKGHGVTIYPDASGGNTSSKNASESDLSILRKAGFTVRVNSRNPSVKDRINAVNGMLLNDEGARRWLVNTDRCPTLTEALEQQVYDKNGEPDKSTGHDHPNDAQGYFLVHRYPITPTGMSRIKLTGT | not soluble |
| MDKRYLESDVFEAFQERLSYLFNEFDYIYVSFSGGKDSGLLLNLVLDYKRKNNISSKIGVFHQDFEAQYSLTTEYVEKVFEDNIEDIEPYWVCLPMATRTAVGNYEMYWYPWDDEKEELWVREMPVKEYIINQKNNPFTYYKYKMRQESLAKQFGRWIRDIHEGAKVVCLLGTRAAESLQRYCSIVNKQHGYKGKCWITKEFKNVWTASPIYDWEIEDIWLAHYKFDYDYNKIYDLFYK | not soluble |
| MADKSTEVEKAIDPIIDLGNLLFIDREPIQGDASEGLEERARKNTQLLFNNIWQLEQKRVEEAIIVTLPPATYRLPREKRLPEKKEPTKWEKYAAEKGIEKRKKDKKVFDEATKEWKPTYGYRRGNDDTKDWLIEIPDNAEDPNKDFFAERREKKKERVAKNDMQRMKNLARQMKTTVKSGPSTEKMIGVGVDAKEKSKQQVRFAVDRAKLATASAGKFQEGLKGEKANVKTGKKRKFEANEAPVSGEKERALQILQRMKSKKAKIVEEKAAAVAGPLREKKEKSERKGAKDQTRQKSQIHRQQWFKNKVDGKKKGTGGAGKKGANKAKARKG | not soluble |
| MNPTFLEFIGANQRSSCGYCKNDRGERTPARSAKSGAWAHSMTVNDYSGLLDVGWRRSGRYLYKPDNRVTCCPQYTIRLDVTKFKMSRSQKRAMRQMNEFLATGKRPVCGIKEEDAPVEMNLKGSGSQSEQSKKNLKSHEVSTKKMKDADRPVLTKKEIRNKKFEEKCRQKNLDPDVVRTERRQKDAARQRTIQSYIDEARPDWKHKLEVKLVSLGGDEFGTRDNESFELYKNYQHTIHKDEDCRLAGFRRFLCDSPLKKEQRGGIELGSFHLWFLLDDKLIAVCVVDILPKCFSAKYMYYNPEYSFLSLGTYTALREIEQTQRLHAIYSNLKYYYMGYYIHSCPKMRYKAKFRPSDLLCDQSFRWVDFNSCRDLLDGSTCSNGFSEFCPGAPRPASPVVDTLLVFSNGSITTLSDALTEIPEAAENEQFLANVRDLAHLVGPDLSRVVYYFNELNS | not soluble |
| MSLVDTAKVLILDDQAVSRSILSKIVRNLGRGIKTCEFSSPTEALLWAQDNTADLLLVDYEMPGMNGLCFINEITRLPQYQTVPTIMITIKQDVEIRYAALDAGVTDFLTKPVDMHECMARCKNLITLRQQRLTLEDEGHHHHHH | soluble |
| MAGDPNSMKRKPAVAGLFYPSRRDELIEQIRMCFLDKRIGPGKLPGPVETKLQNPIGLVSPHAGYIYSGPVAAWGFLEAVKFGEPSVVVIIGPNHTGLGRPVGVWPEGEWETPLGTVPVNERAVEIVLSNSRYAEEDFMSHIREHSIEVQIPFLQFVFGEVSIVPICLMDQSPAVAEDLASALAKLVAEFPGVLIIASTDLNHYEDQRTTLRKDSYIIEAIEGMDPSLLYEYLVREDISMCGYGGVATLLNMDFENVRILKHATSGDVSGDTLEVVGYLSAILFLEHHHHHH | not soluble |
| MANFVQLSETPAACSSNPCGPEAAGTCKETNSGYICRCNQGYRISLDGTGNVTCIVRQESG | soluble |
| MGNICIGGPRMSQQVYSPERADTPQRNALREQTEADIEQNSESMRLQQKIDDLKPYVSNATGPMKAYGQAAMDRASGKKTYVSFAELDAEHLDAMVDVENQRNPDLNLRYFKHHKEFIQALESDGPSSFRAIYPLTKPRTGQAAKHHVMADVRLTPCEPPSIVITEPGVIVGKRNKQLHRHNQTLEDLSESGVQLSQVAIIETQAQKTPDDCVMYCLNYAIKAHKNADKFDDIHHGLQRGTFVNRINGRRVQDADHCGHF | not soluble |
| MTQEYQLRILPEIAANEQRLKEYISKEKGINLRNITATRILKRSIDARQRTIFVNLKVRAYINEMPKEDEFERTIYNNVEGKPQVIVVGAGPGGLFAALRLIELGLRPIIVERGKDVRERKKDLAQISREHTVDPESNYSFGEGGAGAYSDGKLYTRSKKRGNIDKILNVFCQHGASAAILADAHPHIGTDKLPRVIENMRNTIIECGGEVHFQTRMDALIIENNEIKGIETNTGKTFLGPVILATGHSARDVYRWLAANGVTIEAKGIAVGVRLEHPAMLIDQIQYHNKNGRGKYLPAAEYSFVTQAEGRGVYSFCMCPGGFIVPAASGPEQVVVNGMSPSNRGSRWSNSGMVVEIQPEDFISGELKMESGELAAQQNAQLLAINPLLSNSQLSTLKTQLTPLHFQEELERQCWLQGGRRQTAPAQRMLDFTRKKLSFDLPESSYSPGLISSPLHFWMPDFISKRLSLGFQQFGRTSHGFLTNEAVMIGVETRTSSPVRIVRDKETLQHVTVRGLFPCGEGAGYAGGIVSAGVDGERCAEAVANYINHLEHHHHHH | not soluble |
| MAHHHHHHMVTFRCDCLHNEAEGALCRWKGKWHPANCTNTPVLLIGKGQPQGYFKLKLKVYAIFHGNGHRLHTLNCTDEDSSEDSLNATTCSDSDWRSITQQVPTEETVEQSAASEQGPSDTTKGSGSDDEETASSAPKSEGEEQEASGEGEETPKEDQQSPGEKRGTAGEKRGASGKKDGAGGEGLTRKEPEKGGATQGGKHTHPRGESSPEKGTVNDHQRDAAEDGTTTNGKQDADPGREEPVRGRDDTVAAGAGIVSNTGRIDRKPENKKGNNVRYGAIQNLLVAIVCFITG | not soluble |
| MACAAARSPADQDRFICIYPAYLNNKKTIAEGRRIPISKAVENPTATEIQDVCSAVGLNVFLEKNKMYSREWNRDVQYRGRVRVQLKQEDGSLCLVQFPSRKSVMLYAAEMIPKLKTRTQLEHHHHHH | soluble |
| SPNNSKHKKKQQRRQQEAQKKSRAKQIETDKKNDEFLDTELDEVSPLVIDDDMTEFKNMPKVELHAHLSGSLSPETIKLIMESDETRAEEIMKKYKLEKPENMTGVFDCFPVIHAILRKPEAIRIAIRQTIKEFEEDNCVYLELRTSPKETDFMTYEDYLQVCIESFEAAKHEFPRIKTFLIVSLDRRMPFETAAHILGLIGEAQQRTNVIVGVELSGDPHLDGRRLLKLFVAARRFHGLGITIHLAEVLQNMADVEDYLNLRPDRIGHGTFLHTDPYTEYLTNKYKIPLGENLIQLHLIFLFFLEICLSSNVYSKTTTNYRNSHFNYWRKRGVPVFICTDDKGVIPGATLTEEYYKAAITFDLSTEELIGINQDALLNSFAYKYNVTDLTETFRKINNNVLD | not soluble |
| AIANNSHTGFVGEMFGSSDILRSVSIPSEADKPMIVELAVAAMEELVRMAQTGDPLWVSSDNSVEILNEEEYFRTFPRGIGPKPIGLRSEASRESTVVIMNHINLIEILMDVNQWSSVFCGIVSRALTLEVLSTGVAGNYNGALQVMTAEFQVPSPLVPTRENYFVRYCKQHSDGIWAVVDVSLDSLRPSPITRSRRRPSGCLIQELQNGYSKVTWVEHIEVDDRSVHNMYKPLVNTGLAFGAKRWVATLDRQCERLASSMASNIPACDLSVITSPEGRKSMLKLAERMVMSFCTGVGASTAHAWTTLSTTGSDDVRVMTRKSV | soluble |

— the DeepSol protein solubility set
